Residue numbers refer to the chain shown, from its start.
Legend:
Assay in all cases: intrinsic tryptophan fluorescence titration; no ATP; Fluorescence titration (ex 295 nm, em 340 nm), one-site saturation fit; buffer, salt, pH and temperature not given in the material. Wild-type ADAAD Kd values are cited from ref 24 and not listed
Conditions in all cases: protein: recombinant; tags: His (Ni-NTA, pET-14b); hairpin
ADAAD T560A = target: T1, ADAAD T560A (Bos taurus (bovine), UniProt Q9TTA5 221-940, T780A)
T1 sequence: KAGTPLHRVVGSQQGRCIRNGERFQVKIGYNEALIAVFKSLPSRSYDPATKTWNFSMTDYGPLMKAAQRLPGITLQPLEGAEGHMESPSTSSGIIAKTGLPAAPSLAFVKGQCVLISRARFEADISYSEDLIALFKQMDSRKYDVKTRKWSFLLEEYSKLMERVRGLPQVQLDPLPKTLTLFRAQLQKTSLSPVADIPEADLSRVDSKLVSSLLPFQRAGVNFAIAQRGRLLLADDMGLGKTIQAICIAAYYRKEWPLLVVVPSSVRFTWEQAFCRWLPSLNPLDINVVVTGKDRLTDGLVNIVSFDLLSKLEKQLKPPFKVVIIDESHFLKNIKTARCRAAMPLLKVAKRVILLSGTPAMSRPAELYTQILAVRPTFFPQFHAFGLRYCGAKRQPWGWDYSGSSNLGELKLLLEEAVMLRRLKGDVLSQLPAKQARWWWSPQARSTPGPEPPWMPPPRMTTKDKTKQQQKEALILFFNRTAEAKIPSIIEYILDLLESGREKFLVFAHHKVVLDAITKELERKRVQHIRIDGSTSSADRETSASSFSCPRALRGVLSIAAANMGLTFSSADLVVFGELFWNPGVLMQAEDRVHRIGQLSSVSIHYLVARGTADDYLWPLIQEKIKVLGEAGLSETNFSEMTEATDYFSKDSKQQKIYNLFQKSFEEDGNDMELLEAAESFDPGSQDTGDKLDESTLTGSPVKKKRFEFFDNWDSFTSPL

ADAAD R595H = target: T2, ADAAD R595H (Bos taurus (bovine), UniProt Q9TTA5 221-940, R815H)
T2 sequence: T1 sequence with A560T, R595H

ADAAD H329D/D591H = target: T3, ADAAD H329D/D591H (Bos taurus (bovine), UniProt Q9TTA5 221-940, H549D;D811H)
T3 sequence: T1 sequence with H329D, A560T, D591H

In the case of GCGCAATTGCGCTCGACGATTTTTTAGCGCAATTGCGC (structured_DNA) [slDNA (stem-loop DNA)], the Kd (ADAAD T560A) is reported as 6.8 ± 0.6 nM, the Kd (ADAAD R595H) is reported as 24.3 ± 6.1 nM and the Kd (ADAAD H329D/D591H) is reported as 16.1 ± 5.7 nM.
